Data as given in PMC12098869, “An mRNA-display derived cyclic peptide scaffold reveals the substrate binding interactions of an N-terminal cysteine oxidase” (Nature Communications, 2025).
Where “and” joins values, the source holds several entries; their conditions need not be identical. Equal values may be shown once.

T1: ADO-F256A, biotinylated (pQE80L-Navi-ADO) (human, UniProt Q96SZ5 1-270, F256A, biotin on the Avi tag)
T1 construct: Tag as in Dm1; source: E. coli Rosetta2(DE3), purified (Ni-NTA, SEC); not shown: Avi tag, N-terminal, kept; His6, N-terminal, kept
T1 sequence (looked up): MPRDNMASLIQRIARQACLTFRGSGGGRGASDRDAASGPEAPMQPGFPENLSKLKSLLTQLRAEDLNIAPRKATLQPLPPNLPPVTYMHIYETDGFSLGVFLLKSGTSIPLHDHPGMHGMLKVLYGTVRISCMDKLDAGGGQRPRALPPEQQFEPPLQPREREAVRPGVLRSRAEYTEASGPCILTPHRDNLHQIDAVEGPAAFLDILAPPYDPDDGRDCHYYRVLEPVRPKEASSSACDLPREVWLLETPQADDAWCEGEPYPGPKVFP

T2: ADO-Y212A, N-terminally His-tagged and biotinylated (human, UniProt Q96SZ5 1-270, Y212A, biotin (biotinylated during expression))
T2 construct: 2-aminoethanethiol dioxygenase (ADO), human, UniProt Q96SZ5, full length, site-directed mutant; source: E. coli Rosetta2(DE3), purified (Ni-NTA, SEC); not shown: biotinylation tag (from the vector pQE80L-Navi), N-terminal, kept
T2 sequence (looked up): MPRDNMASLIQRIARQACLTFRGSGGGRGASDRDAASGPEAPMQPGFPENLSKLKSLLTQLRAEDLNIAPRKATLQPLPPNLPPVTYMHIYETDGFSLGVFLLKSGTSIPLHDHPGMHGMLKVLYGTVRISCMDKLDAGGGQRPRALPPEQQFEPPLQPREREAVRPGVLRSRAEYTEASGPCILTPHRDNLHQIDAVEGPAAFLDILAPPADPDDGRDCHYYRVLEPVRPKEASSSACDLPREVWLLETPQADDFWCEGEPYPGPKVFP

T3: ADO-F101A, N-terminally His-tagged and biotinylated (human, UniProt Q96SZ5 1-270, F101A, biotin (biotinylated during expression))
T3 construct: 2-aminoethanethiol dioxygenase (ADO), human, UniProt Q96SZ5, full length, site-directed mutant; source: E. coli Rosetta2(DE3), purified (Ni-NTA, SEC); not shown: biotinylation tag (from the vector pQE80L-Navi), N-terminal, kept
T3 sequence (looked up): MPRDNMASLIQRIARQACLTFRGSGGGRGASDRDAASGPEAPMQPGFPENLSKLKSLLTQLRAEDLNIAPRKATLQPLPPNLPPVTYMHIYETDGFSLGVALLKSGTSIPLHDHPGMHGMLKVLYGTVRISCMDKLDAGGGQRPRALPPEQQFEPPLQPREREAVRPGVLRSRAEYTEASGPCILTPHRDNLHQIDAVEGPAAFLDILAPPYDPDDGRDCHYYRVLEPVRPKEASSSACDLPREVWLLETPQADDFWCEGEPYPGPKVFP

T4: ADO-F256A, N-terminally His-tagged and biotinylated (human, UniProt Q96SZ5 1-270, F256A, biotin (biotinylated during expression))
T4 construct: 2-aminoethanethiol dioxygenase (ADO), human, UniProt Q96SZ5, full length, site-directed mutant; source: E. coli Rosetta2(DE3), purified (Ni-NTA, SEC); not shown: biotinylation tag (from the vector pQE80L-Navi), N-terminal, kept
T4 sequence (looked up): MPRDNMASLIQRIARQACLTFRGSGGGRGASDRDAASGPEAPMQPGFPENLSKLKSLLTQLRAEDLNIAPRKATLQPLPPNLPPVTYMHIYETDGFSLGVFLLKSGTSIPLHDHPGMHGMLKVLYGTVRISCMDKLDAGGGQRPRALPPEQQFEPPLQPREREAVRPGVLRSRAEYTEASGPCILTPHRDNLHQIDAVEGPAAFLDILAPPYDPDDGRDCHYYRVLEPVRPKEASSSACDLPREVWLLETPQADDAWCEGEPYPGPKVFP

T5: ADO-C220A, N-terminally His-tagged and biotinylated (human, UniProt Q96SZ5 1-270, C220A, biotin (biotinylated during expression))
T5 construct: 2-aminoethanethiol dioxygenase (ADO), human, UniProt Q96SZ5, full length, site-directed mutant; source: E. coli Rosetta2(DE3), purified (Ni-NTA, SEC); not shown: biotinylation tag (from the vector pQE80L-Navi), N-terminal, kept
T5 sequence (looked up): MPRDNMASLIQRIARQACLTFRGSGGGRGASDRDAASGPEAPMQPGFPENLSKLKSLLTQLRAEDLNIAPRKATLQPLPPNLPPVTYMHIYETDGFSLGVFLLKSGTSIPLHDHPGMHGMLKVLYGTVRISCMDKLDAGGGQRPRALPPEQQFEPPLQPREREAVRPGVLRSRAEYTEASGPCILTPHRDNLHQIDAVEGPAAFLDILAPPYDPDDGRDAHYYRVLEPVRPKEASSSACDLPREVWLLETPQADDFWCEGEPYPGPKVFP

T6: ADO-Y87F, N-terminally His-tagged and biotinylated (human, UniProt Q96SZ5 1-270, Y87F, biotin (biotinylated during expression))
T6 construct: 2-aminoethanethiol dioxygenase (ADO), human, UniProt Q96SZ5, full length, site-directed mutant; source: E. coli Rosetta2(DE3), purified (Ni-NTA, SEC); not shown: biotinylation tag (from the vector pQE80L-Navi), N-terminal, kept
T6 sequence (looked up): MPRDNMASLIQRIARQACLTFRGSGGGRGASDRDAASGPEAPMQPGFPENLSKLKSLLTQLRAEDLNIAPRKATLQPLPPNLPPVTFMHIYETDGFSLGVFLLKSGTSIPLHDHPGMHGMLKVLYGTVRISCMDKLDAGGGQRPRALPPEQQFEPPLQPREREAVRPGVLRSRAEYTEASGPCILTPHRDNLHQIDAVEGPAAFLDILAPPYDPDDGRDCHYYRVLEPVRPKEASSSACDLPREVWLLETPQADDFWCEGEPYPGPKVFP


Columns and labels:
Details in all cases: both partners purified
[1] = target: T1, ADO-F256A, biotinylated …; assay: SPR; single-cycle kinetics (SCK), 1:1 binding model; biotinylated ADO or variant immobilised on a Biotin CAP chip, peptide injected at 25.6, 64, 160, 400, 1000 nM; 4 °C; 20 mM HEPES pH 7.5, 500 mM NaCl, 10 mM DTT, 0.1% (v/v) tween-20; 50 μL/minute
[2] = target: T2, ADO-Y212A, N-terminally His-tagged and …; assay: SPR; biotinylated ADO or ADO mutant immobilised on a Biotin CAP chip (~2500-3000 RU), substrate peptide injected; Biacore T200, 4 °C; 20 mM HEPES pH 7.5, 500 mM NaCl, 10 mM DTT, 0.1% tween-20; 50 µL/minute; multi-cycle or single-cycle mode not given; each cell is one of three independent measurements
[3] = target: T3, ADO-F101A, N-terminally His-tagged and …; assay: as above
[4] = target: T4, ADO-F256A, N-terminally His-tagged and …; assay: as above
[5] = target: T5, ADO-C220A, N-terminally His-tagged and …; assay: as above
[6] = target: T6, ADO-Y87F, N-terminally His-tagged and …; assay: as above

| Kd [1] | Kd [2] | Kd [3] | Kd [4] | Kd [5] | Kd [6] | Binder |
| --- | --- | --- | --- | --- | --- | --- |
| 730 nM | – | – | – | – | – | CKGLAALPHSCLER (peptide, UniProt O15539 2-15, looked up, Regulator of G-protein signalling 5 (RGS5), residues 2 to 15, N-terminal Cys; also called RGS5 peptide; source: synthetic peptide) |
| – | 66500 nM and 90300 nM and 63100 nM | 42700 nM and 46300 nM and 52300 nM | 717 nM and 753 nM and 714 nM | 960 nM and 1120 nM and 1310 nM | 339 nM (2×) and 336 nM | CKGLAALPHSCLER (peptide, UniProt O15539 2-15, looked up, regulator of G-protein signalling 5 (RGS5), residues 2 to 15 (N-terminal Cys exposed); UniProt O15539 is printed for the full-length human protein; also called 14-mer RGS5; source: synthetic peptide) |
